Laboratory results from patent US20210292393A1 (published 2021).

Target: SARS-CoV-2 full-length spike protein on pseudotyped lentivirus (SARS-CoV-2, UniProt P0DTC2 14-1273)
Assay: cell-based or functional assay

| Binder | IC50 (pseudoneutralization) [µg/mL] | IC80 (pseudoneutralization) [µg/mL] |
| --- | --- | --- |
| anti-SARS-CoV-2 antibody 292 (antibody, V domains shown) VH: EVQLVESGGGLIQPGGSLRLSCAASGFTVSSNYMSWVRQAPGKGLEWVSVIYSGGSTYYADSVKGRFTISRDNSKNTLYLQMNSLRAEDTAVYYCARDLQGGGGPWGQGTLVTVSS VL: AIQMTQSPSSLSASVGDRVTITCRASQGIRNDLGWYQQKPGKAPKLLIYAASSLQSGVPSRFSGSGSGTDFTLTISSLQPEDFATYYCLQDYNYPRTFGQGTKVEIKR | > 50 | > 50 |
| anti-SARS-CoV-2 antibody 481 (antibody, V domains shown) VH: EVQLVESGGGLIQPGGSLRLSCAASGFTVSSNYMSWVRQAPGKGLEWVSVIYSGGSTFYADSVKGRFTISRDNSKNTLYLQMNSLRAEDTAVYYCAREVAGTYDYWGQGTLVTVSS VL: DIQMTQSPSSVSASVGDRVTITCRASQGISSWLAWYQQKPGKAPKLLIYAASSLQSGVPSRFSGSGSGTDFTLTISSLQPEDFATYYCQQANSFPGGTFGPGTKVDIKR | 17.2 | > 50 |
| anti-SARS-CoV-2 antibody 447 (antibody, V domains shown) VH: EVQLVESGGGLVQPGGSLRLSCAASGFTVSSNYMSWVRQAPGKGLEWVSVIYSGGSTYYADSVKGRFTISRDNSKNTLYLQMNSLRAEDTAVYYCARDKSSGSGPWGQGTLVTVSS VL: AIQMTQSPSSLSASVGDRVTITCRASQGIRNDLGWYQQKPGKAPKLLIYAASSLQSGVPSRFSGSGSGTDFTLTISSLQPEDFATYYCLQDYNYPRTFGQGTKVEIKR | > 50 | > 50 |
| anti-SARS-CoV-2 antibody 419 (antibody, V domains shown) VH: QVQLVQSGAEVKKPGASVKVSCKASGYTFTSYYMHWVRQAPGQGLEWMGIINPSGGSTSYAQKFQGRVTMTRDTSTSTVYMELSSLRSEDTAVYYCARDWTQSSGYDYYYGLDVWGQGTTVTVSS VL: not shown | > 50 | > 50 |
| anti-SARS-CoV-2 antibody 483 (antibody, V domains shown) VH: QVQLQESGPGLVKPSETLSLTCTVSGGSISSYYWSWIRQPPGKGLEWIGYIYYSGSTNYNPSLKSRVTISVDTSKNQFSLKLSSVTAADTAVYYCARAPEEKSSEIGELVGWGWFDPWGQGTLVTVSS VL: not shown | > 50 | > 50 |
| anti-SARS-CoV-2 antibody 462 (antibody, V domains shown) VH: QVQLVESGGGVVQPGRSLRLSCAASGFTFSSYGMHWVRQAPGKGLEWVAVIWYDGNNKYYADSVKGRFTISRDNSKNTLYLQMNSLRAEDTAVYYCAKDPTWFGELPSYYYYGMDVWGQGTTVTVSS VL: not shown | > 50 | > 50 |
| anti-SARS-CoV-2 antibody 488 (antibody, V domains shown) VH: EVQLVESGGGLIQPGGSLRLSCAASGLTVSSNYMSWVRQAPGKGLEWVSVIYSGGSTYYADSVKGRFTISRDNSKNTLYLQMNSLRAEDTAVYYCARSPYGGNSWGQGTLVTVSS VL: not shown | 3.52 | > 50 |
| anti-SARS-CoV-2 antibody 408 (antibody, V domains shown) VH: QVQLVESGGGVVQPGRSLRLSCAASGFTFSSYAMHWVRQAPGKGLEWVAVISYDGSNKYYADSVKGRFTISRDNSRNTLYLQMNSLRAEDTAVYYCAKGADTPHYSGYDFLSVGYYYYGMDVWGQGTTVTVSS VL: DIQMTQSPSSLSASVGDRVTITCRASQSISSYLNWYQQKPGKAPKLLIYAASSFQSGVPSRFSGSRSGTDFTLTISSLQPEDFATYYCQQSYSAPFTFGPGTKVDIKR | > 50 | > 50 |
| anti-SARS-CoV-2 antibody 555 (antibody, V domains shown) VH: QVQLVQSGAEVKKPGSSVKVSCKASGGTFSNYAISWVRQAPGQGLEWMGRIIPILGIANYAQKFQGRVTITADKSTSTAYMELSSLRSEDTAVYYCARGYYEARHYYYYYAMDVWGQGTAVTVSS VL: not shown | 0.38 | 1.4 |
| anti-SARS-CoV-2 antibody 364 (antibody, V domains shown) VH: EVQLVESGGGLVQPGRSLRLSCTASGFTFGDYAMSWFRQAPGKGLEWVGFIRSKAYGGTTEYAASVKGRFTISRDDSKSIAYLQMNSLKTEDTAVYYCTRFGIDYDYIWGSYRYTTLFDYWGQGTLVTVSS VL: not shown | > 50 | > 50 |
| anti-SARS-CoV-2 antibody 506 (antibody, V domains shown) VH: QITLKESGPTLVKPTQTLTLTCTFSGFSLSTSGVGVGWIRQPPGKALEWLALIYWDDDKRYSPSLKSRLTITKDTSKNQVVLTMTNMDPVDTATYYCAHHSLSSIFDYWGQGTLVTVSS VL: QSALTQPASVSGSPGQSITISCTGTSSDVGDYNYVSWYQQHPGKAPKLMIYEVSNRPSGVSNRFSGSKSGNTASLTISGLQAEDEADYYCSSYTSSSTVFGGGTKLTVLG | > 50 | > 50 |

Target: SARS-CoV spike protein (SARS-CoV, UniProt P59594 14-1190)
Assay: not given

| Binder | median fluorescence intensity, fold over isotype control [fold over isotype] |
| --- | --- |
| antibody 380 (antibody, V domains shown) VH: QVQLVESGGGVVQPGRSLRLSCAASGFTLKNYGMHWVRQAPGKGLEWVIVLSFDGSDEYKADSVRGRFTVSRDNSKNTLFLQMNSLRPDDTAVYYCAREQPTMIEGGRGPFDIWGQGTMVTVSS VL: EVVMTQSPATLSVSPGDRATLSCRASQGVNSNLAWYQQKPGQAPRLLIYAASTRATGIPARFSASGSGTHFTLTISSLQSEDFAVYYCLQYNNWPPWTFGQGTKLEIK | 1.21 |
| antibody 379 (antibody, V domains shown) VH: QVQLQESGPGLVKPSQTLSLTCTVSGGSISSGGYYWSWIRQHPGKGLEWIGYIYYSGSTYYNPSLKSRVTISVDTSKNQFSLKLSSVTAADTAVYYCARGPLDFWSGYFRLRYFDSWGQGTLVTVSS VL: QSALTQPASVSGSPGQSITISCTGTSSDVGGYNYVSWYQQHPGKAPKLMIYDVTNRPSGVSNRFSGSKSGNTASLTISGLQAEDEADYYCSSYTSSSTCVFGTGTKVTVL | 5.9 |
| antibody 372 (antibody, V domains shown) VH: QVQLVESGGGVVQPGRSLRLSCAASGFTFSSYAMHWVRQAPGKGLEWVAVISYDGSNKYYADSVKGRFTISRDNSKNTLYLQMNSLRAEDTAVYYCARDLGTSALLWFGELFLNYGMDVWGQGTTVTVSS VL: QSALTQPRSVSGSPGQSVTISCTGTSSDVGGYNYVSWYQQHPGKAPKLMIYDVSKRPSGVPDRFSGSKSGNTASLTISGLQAEDEADYYCCSYAGSPILVFGGGTKLTVL | 1.08 |

Target: SARS-CoV-2 spike (S) protein, full length, wild type, expressed on the surface of CHO cells (SARS-CoV-2, UniProt P0DTC2 14-1273)
Assay: not given

| Binder | median fluorescence fold over isotype [fold over isotype] |
| --- | --- |
| antibody 365 (antibody, V domains shown) VH: QVQLVESGGGVVQPGRSLRLSCAASGFNLSSYAMHWVRQASGKGLEWVSLISYDGSIKYYTDSVKGRFTVSGDNSKNTLFLQMNSLRPDDSALYYCVRGGVSGPNSFDMWGQGTTVTVSS VL: DVVMTQSPLSLPVTLGQPASISCRSSQSLVYSDGNTYVNWFQQRPGQSPRRLIYKVSIRASGVPDRFSGSGSGTDFALKISRVEAEDVGVYYCMQGTHWPVTFGQGTKVEIK | 10.7 |
| antibody 327 (antibody, V domains shown) VH: QVQLVESGGGVVQPGRSLRLSCAASGFNLSNYAMHWVRQASGKGLEWVSLISYDGSIKYYTDSVKGRFTVSGDNSKNTLFLQMNSLRPDDSALYYCVRGGVSGPNSFDMWGQGTTVTVSS VL: DVVMTQSPLSLPVTLGQPASISCRSSQSLVYSDGNTYVNWFQQRPGQSPRRLIYQVSIRASGVPDRFSGSGSGTDFALKISRVEAEDVGIYYCMQGTHWPVTFGQGTKVEIK | 9.54 |
| antibody 326 (antibody, V domains shown) VH: QITLKESGPTLVKPTQTLTLTCTFSGFSLNTSGVGVGWIRQPPGKALEWLSLIFWNDDKRYSPSLRSRLTITKDTSKNQVVLTMTNMDPVDTATYFCAHRNSGWSLKFDSWGQGSLVTVSA VL: DIQMTQSPSSVSASVGDRVTITCRARQGISSWLVWYQQKPGKAPKLLIFGASSLQSGVPSRFNASGTGTEFTLTISSLQPEDFATYYCQQADSFPITFGQGTRLEIK | 10.1 |
| antibody 324 (antibody, V domains shown) VH: QVQLQESGPGLVKPSGTLSLTCAVSGGSISSSNWWSWVRQPPGKGLEWIGEIYHSGSTNYNPSLKSRVTISVDNSKNQFSLKLSSVTAADTAVYYCARESVAAAGISYYYYGMDVWGQGTTVTVSS VL: EIVLTQSPGTLSLSPGERATLSCRASQSVSGRYLAWYQQKPGQAPRLLIYGASSRATGIPDRFSGSGSGTDFTLTISRLEPEDFAVYYCQHYGSSPGTFGQGTRLEIK | 9.44 |
| antibody 329 (antibody, V domains shown) VH: EVQLVESGGGLVQPGGSLRLSCAASGFTFSSYWMHWVRQAPGKGLVWVSRINSDGSSTSYADSVKGRFTISRDNAKNTLYLQMNSLRAEDTAVYYCAREGIVATITLDYWGQGTLVTVSS VL: not shown | 9.41 |
| antibody 331 (antibody, V domains shown) V domain 1: QITLKESGPTLVKPTETLTLTCSFSGFSLTKTGEAAGWIRQAPGRALEWVTVIFWDDDKRYSPSLQNRISVTKDTSKNQVVLRMTNVARFDTGTYFCWAMGGPGKEYFGQGTLVAVSS V domain 2: QSVLTQPPSVSGAPGQRVTISCTGTSSSIGPYSDVHWYQHVSGKAPRLLIFGNSNRPSGVPDRFSGSKSGTSASLVIAGLQAEDEADYYCQSYDSSLGEIYVFGTGTTVTVL | 20.1 |
| antibody 339 (antibody, V domains shown) V domain 1: QITLKESGPTLVKPTETLTLTCSFSGFSLTRTGEAAGWIRQAPGRALEWVTVIFWDDDKRYSPSLQSRLTVTKDTSKNQVVLTMTNVARFDTATYFCWAMGGPGKEYFGQGTQVAVSS V domain 2: QSVLTQPPSVSGAPGQRVTISCTGTSSSIGPYSDVHWYQHVSGKAPRLLIFGNSNRPSGVPDRFSGSKSGTSASLVIAGLQAEDEADYYCQSYDSSLGEIYVFGTGTTVTVL | 21.2 |
| antibody 323 (antibody, V domains shown) VH: QVQLVQSGAEVKKPGASVKVSCKVSGYTLTELSMHWVRQAPGKGLEWMGGFDPEDGETIYAQKFQGRVTMTEDTSTDTAYMELSSLRSEDTAVYYCATSTIFAPGGWFDPWGQGTLVTVSS VL: QSALTQPASVSGSPGQSITISCTGTSSDVGSYNLVSWYQQHPGKAPKLMIYEVSKRPSGVSNRFSGSKSGNTASLTISGLQAEDEADYYCCSYAGSTHYVFGTGTKVTVL | 20.6 |
